Eight molecules from paper PMC3333781, “Systematic mapping of two component response regulators to gene targets in a model sulfate reducing bacterium” can be followed below.

Common to all, as to test: EMSA; 10 mM Tris-HCl pH 7.5, 1 mM DTT, 50 mM KCl, 5 mM MgCl2, 25% glycerol, 1 ug/ml poly dI-dC, 50-100 fmol biotinylated DNA, 25-30 C, 20 min
What all share (conditions): protein: recombinant; tags: C-terminal V5-6xHis; chain copies: 2; label: 5'-biotin top strand
(In general: A gel shift assay detects complexes by their altered migration in electrophoresis.)

The target of data set [1] is T1, DVU2934 response regulator (Desulfovibrio vulgaris Hildenborough, UniProt Q727C1 1-472).
T1 sequence: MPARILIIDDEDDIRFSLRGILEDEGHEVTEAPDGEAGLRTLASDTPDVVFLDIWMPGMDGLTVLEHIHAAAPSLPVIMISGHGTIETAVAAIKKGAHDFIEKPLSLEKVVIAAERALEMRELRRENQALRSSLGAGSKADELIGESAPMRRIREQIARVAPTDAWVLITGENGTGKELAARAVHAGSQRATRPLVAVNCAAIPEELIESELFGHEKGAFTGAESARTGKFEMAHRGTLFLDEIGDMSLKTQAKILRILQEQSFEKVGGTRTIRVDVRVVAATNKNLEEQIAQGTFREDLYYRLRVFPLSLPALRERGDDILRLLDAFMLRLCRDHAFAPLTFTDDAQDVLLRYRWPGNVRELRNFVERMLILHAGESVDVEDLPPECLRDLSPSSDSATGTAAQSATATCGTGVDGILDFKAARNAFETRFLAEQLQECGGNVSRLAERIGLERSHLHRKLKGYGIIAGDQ

The target in data set [2] is T2, DVU1083 response regulator (PhoB) (Desulfovibrio vulgaris Hildenborough, UniProt Q72D47 1-229).
T2 sequence: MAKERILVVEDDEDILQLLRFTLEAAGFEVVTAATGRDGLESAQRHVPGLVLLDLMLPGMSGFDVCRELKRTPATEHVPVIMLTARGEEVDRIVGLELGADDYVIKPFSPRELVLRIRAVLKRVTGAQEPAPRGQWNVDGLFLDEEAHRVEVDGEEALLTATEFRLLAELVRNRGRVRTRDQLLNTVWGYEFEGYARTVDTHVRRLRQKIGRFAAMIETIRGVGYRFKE

The target in data set [3] is T3, DVU3381 response regulator (Desulfovibrio vulgaris Hildenborough, UniProt Q725P3 1-459).
T3 sequence: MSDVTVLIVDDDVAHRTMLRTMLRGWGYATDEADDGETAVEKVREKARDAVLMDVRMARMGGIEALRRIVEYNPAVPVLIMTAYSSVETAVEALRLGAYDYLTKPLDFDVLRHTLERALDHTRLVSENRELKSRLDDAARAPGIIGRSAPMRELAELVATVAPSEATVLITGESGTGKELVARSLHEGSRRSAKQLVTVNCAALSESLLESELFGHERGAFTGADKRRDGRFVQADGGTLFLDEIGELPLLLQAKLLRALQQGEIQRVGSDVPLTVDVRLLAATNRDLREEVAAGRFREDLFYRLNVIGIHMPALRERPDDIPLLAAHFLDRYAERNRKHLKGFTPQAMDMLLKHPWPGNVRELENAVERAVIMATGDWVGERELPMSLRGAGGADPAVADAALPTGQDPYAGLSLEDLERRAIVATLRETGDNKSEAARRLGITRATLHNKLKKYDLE

Data set [4] deals with T4, DVU3023 response regulator (Desulfovibrio vulgaris Hildenborough, UniProt Q726T3 1-474).
T4 sequence: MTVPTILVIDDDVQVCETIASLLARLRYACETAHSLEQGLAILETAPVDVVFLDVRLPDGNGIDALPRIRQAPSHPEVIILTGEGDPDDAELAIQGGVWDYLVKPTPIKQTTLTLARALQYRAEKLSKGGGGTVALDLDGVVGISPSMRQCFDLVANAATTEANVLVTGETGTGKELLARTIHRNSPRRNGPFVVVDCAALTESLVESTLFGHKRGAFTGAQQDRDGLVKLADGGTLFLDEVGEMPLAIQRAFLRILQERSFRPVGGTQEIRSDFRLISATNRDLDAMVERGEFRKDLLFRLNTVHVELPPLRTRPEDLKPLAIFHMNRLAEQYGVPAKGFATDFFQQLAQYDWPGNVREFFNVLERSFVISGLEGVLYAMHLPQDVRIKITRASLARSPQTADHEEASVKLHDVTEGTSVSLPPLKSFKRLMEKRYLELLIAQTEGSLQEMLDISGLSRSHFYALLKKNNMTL

Data set [5] concerns the target T5, DVU3305 response regulator (Desulfovibrio vulgaris Hildenborough, UniProt Q725X0 1-451).
T5 sequence: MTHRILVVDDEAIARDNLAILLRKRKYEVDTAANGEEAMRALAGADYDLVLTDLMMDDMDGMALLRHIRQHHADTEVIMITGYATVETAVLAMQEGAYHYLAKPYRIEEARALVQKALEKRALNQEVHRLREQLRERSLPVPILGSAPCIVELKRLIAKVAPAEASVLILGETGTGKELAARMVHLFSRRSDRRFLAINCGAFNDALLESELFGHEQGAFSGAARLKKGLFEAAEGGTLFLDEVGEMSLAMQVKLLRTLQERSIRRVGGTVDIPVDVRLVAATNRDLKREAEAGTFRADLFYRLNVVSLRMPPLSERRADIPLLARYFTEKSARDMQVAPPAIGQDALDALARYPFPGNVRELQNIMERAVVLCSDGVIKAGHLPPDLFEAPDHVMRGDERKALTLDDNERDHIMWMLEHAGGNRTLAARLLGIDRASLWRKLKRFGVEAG

The target of data set [6] is T6, DVU0539 response regulator (Desulfovibrio vulgaris Hildenborough, UniProt Q72EN8 1-467).
T6 sequence: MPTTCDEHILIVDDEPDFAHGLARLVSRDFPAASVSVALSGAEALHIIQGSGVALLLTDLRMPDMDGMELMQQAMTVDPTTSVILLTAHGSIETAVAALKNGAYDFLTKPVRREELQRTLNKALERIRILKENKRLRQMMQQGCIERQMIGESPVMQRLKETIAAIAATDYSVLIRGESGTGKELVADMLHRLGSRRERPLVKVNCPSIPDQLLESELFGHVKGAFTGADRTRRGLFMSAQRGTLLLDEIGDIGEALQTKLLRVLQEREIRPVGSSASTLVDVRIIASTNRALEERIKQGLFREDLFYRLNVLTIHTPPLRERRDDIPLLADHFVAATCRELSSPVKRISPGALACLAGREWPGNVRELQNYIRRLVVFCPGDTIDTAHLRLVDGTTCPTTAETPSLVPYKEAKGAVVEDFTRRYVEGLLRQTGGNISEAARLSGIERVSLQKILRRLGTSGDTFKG

The target of data set [7] is T7, DVU0946 response regulator (Desulfovibrio vulgaris Hildenborough, UniProt Q72DI3 1-476).
T7 sequence: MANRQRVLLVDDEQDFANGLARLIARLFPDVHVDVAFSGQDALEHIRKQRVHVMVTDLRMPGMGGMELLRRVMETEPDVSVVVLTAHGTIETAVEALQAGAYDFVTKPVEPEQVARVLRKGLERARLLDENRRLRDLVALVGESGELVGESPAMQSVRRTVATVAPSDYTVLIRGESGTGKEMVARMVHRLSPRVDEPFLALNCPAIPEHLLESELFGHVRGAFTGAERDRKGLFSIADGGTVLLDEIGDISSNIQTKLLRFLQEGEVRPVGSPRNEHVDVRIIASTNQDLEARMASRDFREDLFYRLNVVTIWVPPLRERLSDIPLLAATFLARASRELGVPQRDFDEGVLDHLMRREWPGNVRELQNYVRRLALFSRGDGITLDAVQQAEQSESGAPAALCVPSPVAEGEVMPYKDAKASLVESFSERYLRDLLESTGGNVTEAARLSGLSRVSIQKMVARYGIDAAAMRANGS

Data set [8] concerns the target T8, DVU0679 response regulator (Desulfovibrio vulgaris Hildenborough, UniProt Q72E99 1-488).
T8 sequence: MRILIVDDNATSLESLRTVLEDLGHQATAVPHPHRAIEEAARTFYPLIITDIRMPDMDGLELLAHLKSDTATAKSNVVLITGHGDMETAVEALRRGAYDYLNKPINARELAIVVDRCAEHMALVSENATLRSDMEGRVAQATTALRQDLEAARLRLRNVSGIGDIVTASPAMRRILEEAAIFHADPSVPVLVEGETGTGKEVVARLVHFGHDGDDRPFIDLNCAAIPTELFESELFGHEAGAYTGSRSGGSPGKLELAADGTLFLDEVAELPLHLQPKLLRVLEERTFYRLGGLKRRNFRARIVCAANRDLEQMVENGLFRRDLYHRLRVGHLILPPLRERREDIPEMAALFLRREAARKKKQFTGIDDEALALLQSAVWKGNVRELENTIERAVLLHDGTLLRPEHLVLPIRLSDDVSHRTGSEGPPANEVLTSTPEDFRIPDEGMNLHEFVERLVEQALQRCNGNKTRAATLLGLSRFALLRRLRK

In data set [9] the target is T9, DVU2588 response regulator (Desulfovibrio vulgaris Hildenborough, UniProt Q728L5 1-226).
T9 sequence: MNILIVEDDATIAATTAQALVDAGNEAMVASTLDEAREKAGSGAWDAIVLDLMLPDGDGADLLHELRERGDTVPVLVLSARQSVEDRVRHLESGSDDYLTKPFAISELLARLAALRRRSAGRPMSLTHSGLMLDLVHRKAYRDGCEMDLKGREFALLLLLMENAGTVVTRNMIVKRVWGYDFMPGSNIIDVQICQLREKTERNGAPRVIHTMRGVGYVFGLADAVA

B1: DVU2917 motif mut (dsDNA)
DNA 1: CTCGCCATGTGGACTGCAGAAGAGAGACTGTGCGTGG
DNA 2: CCACGCACAGTCTCTCTTCTGCAGTCCACATGGCGAG
Turning to B1, the binding result in data set [1] was “no binding”.

B2: DVU1083 motif mut (dsDNA)
DNA 1: GTTGTAAAATGACAAACGGTTCTAGACGCTCTTCCA
DNA 2: TGGAAGAGCGTCTAGAACCGTTTGTCATTTTACAAC
In the case of B2, in data set [2], the binding result was “no binding”.

B3: DVU3384 motif mut (dsDNA)
DNA 1: CACGAATGGAATGTATTTTTCTTGCACCCATACAC
DNA 2: GTGTATGGGTGCAAGAAAAATACATTCCATTCGTG
In the case of B3, in [3], the binding result is listed as “no binding”.

B4: DVU3025 motif mut (dsDNA)
DNA 1: GCCACACGAACTGCGCTTTTCAATCAACGCTACCAC
DNA 2: GTGGTAGCGTTGATTGAAAAGCGCAGTTCGTGTGGC
For B4, the binding result in data set [4] is “no binding”.

B5: DVU3303 motif mut (dsDNA)
DNA 1: AAAGCCTCGTCATGGGATATCGTACACGAGGCCAC
DNA 2: GTGGCCTCGTGTACGATATCCCATGACGAGGCTTT
Turning to B5, the binding result in data set [5] is “no binding”.

B6: DVU0943 second site mut (dsDNA)
DNA 1: AAAGGGCTCGACAACAGATGTTCCATGCAAA
DNA 2: TTTGCATGGAACATCTGTTGTCGAGCCCTTT
Consider B6, for which the binding result in data set [6] and in data set [7] was “no binding” in each case.

B7: DVU0677 motif mut (dsDNA)
DNA 1: AATCGCACGCGGAGAGTATTCGGATGTGCTTTTCCG
DNA 2: CGGAAAAGCACATCCGAATACTCTCCGCGTGCGATT
For the molecule B7, the binding result in data set [8] was “no binding”.

B8: DVU0943 DVU2588-motif mut (dsDNA)
DNA 1: CGTCCTGCACCTAATCATTCTTAAGTTAAAAGCTGT
DNA 2: ACAGCTTTTAACTTAAGAATGATTAGGTGCAGGACG
Turning to B8, the binding result in [9] was “no binding”.
